Test results from patent US20250333501A1 (University of California, published 2025).

T1: CLDN6 endogenously expressed by human cancer cell lines (ARK2, OVCA429) (human, UniProt P56747 1-220)
T1 construct: Untagged endogenous protein; also called Endogenous CLDN6+
T1 sequence: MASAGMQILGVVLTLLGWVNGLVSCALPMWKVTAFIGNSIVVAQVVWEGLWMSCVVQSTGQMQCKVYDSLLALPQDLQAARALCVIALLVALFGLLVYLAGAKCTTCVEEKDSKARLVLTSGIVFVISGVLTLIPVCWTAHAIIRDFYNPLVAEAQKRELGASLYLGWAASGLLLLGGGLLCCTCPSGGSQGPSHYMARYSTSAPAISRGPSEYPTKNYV

T2: human CLDN6 fused to GFP, expressed on engineered HEK293T cells (HEK293T-CLDN6-mGFP) (human, UniProt P56747 1-220)
T2 construct: It calls residues 1-21 a signal peptide; also called Claudin-6; HEK293T-CLDN6-mGFP Artificial CLDN6+; not shown: mGFP tag
T2 sequence: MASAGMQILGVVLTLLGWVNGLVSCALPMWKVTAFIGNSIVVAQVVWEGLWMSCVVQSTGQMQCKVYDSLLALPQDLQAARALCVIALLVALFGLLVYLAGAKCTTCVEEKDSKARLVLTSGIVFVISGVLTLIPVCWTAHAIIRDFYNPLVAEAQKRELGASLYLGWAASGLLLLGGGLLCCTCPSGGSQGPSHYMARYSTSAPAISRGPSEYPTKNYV

T3: mouse CLDN6 fused to GFP, expressed on engineered HEK293T cells (mouse, UniProt Q9Z262 1-219)
T3 construct: whole, on cells; also called HEK293T-CLDN6-mGFP Artificial CLDN6+ (mouse); murine CLDN6; not shown: GFP tag
T3 sequence (looked up): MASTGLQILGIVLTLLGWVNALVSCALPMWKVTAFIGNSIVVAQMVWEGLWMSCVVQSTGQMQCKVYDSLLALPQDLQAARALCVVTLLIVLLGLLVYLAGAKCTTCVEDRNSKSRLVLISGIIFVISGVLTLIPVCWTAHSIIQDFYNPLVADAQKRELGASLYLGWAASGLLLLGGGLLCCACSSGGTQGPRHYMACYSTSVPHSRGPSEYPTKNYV


How the values were obtained:
[1] = molecular target: T1, CLDN6 endogenously expressed by human …; test: FACS, AF647-labelled mAb, OVCA429 cells
Description: (§1) Antibodies were purified and cell surface binding of the antibodies to CLDN6 and the antibody IC₅₀ were determined by FACS in which CLDN6 antibodies were directly conjugated with Alexa Fluor® 647 NHS Ester (Succinimidyl Ester), Cat #A20106 (ThermoFisher Scientific) following the manufacturer's protocol. CLDN6 antibodies were tested from 0.32 nM to 1000 nM (serial dilution 1:5, 6 points) in a 50 μl volume with 150,000 cells system.
(§2) CLDN6-expressing cells were used in FACS assays to determine the CLDN6 antibody's ability to bind to CLDN6 on the surface of cells and to cross-react with other CLDN family members. HEK293 T cells engineered to express human CLDN6 fused to GFP, mouse CLDN6 fused to GFP, CLDN9-GFP, CLDN4-GFP, or CLDN3-GFP, or GFP alone (without CLDN6) were used as artificial models of CLDN6 expression. ARK2, OVCA429, LS513 and MCF7 cells were used as endogenous models of CLDN6 expression, as well as models for CLDN3/4 expression.
(§3) For each type of cell tested and for each mAb, cells were detached from the surface of the culture flasks by EDTA (instead of trypsin) in order to protect the cell surface proteins. The detached cells were then incubated with Alexa Fluor®-labeled CLDN6 mAbs for 30 min in the dark on ice at a pre-determined concentration. The CLDN6 mAbs were directly labeled with Alexa Fluor® 647 NHS Ester (Succinimidyl Ester). After washing, the cells were read by a BD Accuri™ Flow Cytometer C6 to detect antibody-antigen protein binding in channel FL4H. Each antibody was tested at varied concentrations to establish a dose-fluorescence curve. The EC50/IC50 of the antibodies (the concentration of the antibody at which half the max value were calculated based on the values of FL4H (gated in viable singlet cells) using the Very Simple IC50 Tool kit available online which allows biological dose-response data to be plotted and fitted to curve types to give the EC50/IC50. The max value was the lowest concentration of the antibody at which fluorescence maxes out. The antibodies were also screened for their ability to cross-react with other CLDN proteins such as CLDN9, CLDN3, and CLDN4. These values were used to determine each antibody's relative affinity among the set of antibodies tested. Cross-reactivity data were obtained using a similar methodology, but with cells having a different expression profile for CLDN6, CLDN3, CLDN4 and CLDN9.

[2] = molecular target: T2, human CLDN6 fused to GFP, expressed on …; test: FACS, AF647-labelled mAb, HEK293T-CLDN6-mGFP cells
Description: as §1, §2, §3

[3] = molecular target: T1, CLDN6 endogenously expressed by human …; test: FACS, AF647-labelled mAb, ARK2 cells
Description: as §1, §2, §3

[4] = molecular target: T2, human CLDN6 fused to GFP, expressed on …; test: FACS, 0.3 µg Ab, 293T clone with human CLDN6
Procedure, shortened: (§4)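 Humanized antibodies were tested by flow cytometry, essentially as in the source's direct-binding protocol, on engineered 293T clones expressing human CLDN6. Each antibody was used at 0.3 µg or 1.5 µg. In that protocol, EDTA-detached cells were incubated with Alexa Fluor 647 NHS ester-labelled antibody for 30 min on ice in the dark, washed and read on a BD Accuri C6 in channel FL4H. Fluorescence gives relative antigen binding strength.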

[5] = molecular target: T3, mouse CLDN6 fused to GFP, expressed on …; test: FACS, 293T clone with mouse CLDN6, dose not given
Description: Humanized antibodies described in Table 8 were constructed and expressed as essentially described in Example 5. FACS assays were carried out as essentially described in Example 5 to determine relative antigen binding strengths of the humanized antibodies. Two doses (1.5 μg or 0.3 μg) of the humanized antibodies were tested for binding to either human CLDN6 or murine CLDN6 which proteins were expressed by engineered 293T clones.

[6] = molecular target: T1, CLDN6 endogenously expressed by human …; test: FACS, 1.5 µg Ab, ARK2 cells
Description: (§5) FACS assays were also carried out to determine relative antigen binding strengths of the humanized antibodies (at either 1.5 μg or 0.3 μg) for binding to CLDN6 as expressed by the indicated cancer cell lines. 2nd Ab only was used as a negative control.

[7] = molecular target: T1, CLDN6 endogenously expressed by human …; test: FACS, 1.5 µg Ab, OVCA429 cells
[8] = molecular target: T1, CLDN6 endogenously expressed by human …; test: FACS, 0.3 µg Ab, ARK2 cells
Description: as §5

[9] = molecular target: T2, human CLDN6 fused to GFP, expressed on …; test: FACS, 1.5 µg Ab, 293T clone with human CLDN6
Procedure, shortened: as §4

Row | Binder | EC50 [1] | EC50 [2] | EC50 [3] | FACS fluorescence [4] | FACS fluorescence [5] | FACS fluorescence [6] | FACS fluorescence [7] | FACS fluorescence [8] | FACS fluorescence [9]
1 | AB18 (antibody, V domains shown, Labelled with Alexa Fluor 647 NHS ester for FACS) VH: QVQLKQSGPELEKPGASVKISCKASGYSFTGYNMNWVKQSNGKSLEWIGNIDPYYGGSTYNQKFTGKATLTVDKSSSTAYMQLKSLTSEDSAVYYCARERSGYVFSAMDYWGQGTSVTVSS VL: NIMMTQSPSSLAVSAGEKVTMSCKSSQSVLFSSNQKNYLAWYQQKPGQSPRLLIYWASTRESGVPDRFTGSGSGTDFTLTISNVQAEDLAVYYCHQYLSSRTFGAGTKLELK | 2440 nM | ≥ 5000 nM | 1350 nM |  |  |  |  |  | 
2 | AB14 (antibody, V domains shown, Labelled with Alexa Fluor 647 NHS ester for FACS) VH: QVQLQQSGPELVRPGVSVKISCKGSGYTFTDYAMHWVKQSHAKSLEWIGVISTYSGNTNYNQKFQDKATMTVDKSSSTAYMALARLTSDDSAIYYCARRGDYSLYAMDYWGQGTSVTVSS VL: DIVLTQSPASLAVSLGQRATISCKASQSVDYDGDNYVNWYQQKVGQPPKLLISAASNLESGIPARFSGSGSGTDFTLNIHPVEEEDAATYYCQQSNEDPFTFGSGTKLEIK | 1660 nM | ≥ 5000 nM | 1300 nM |  |  |  |  |  | 
3 | AB13 (antibody, V domains shown, Labelled with Alexa Fluor 647 NHS ester for FACS) VH: QVQLQQSGAELVRPGTSVKVSCKASGYAFSNYLIEWVKQRPGQGLEWIGVINPGSGGTNYNEKFKGKATMTADKSSSTAYMHLSNLTSEDSVVYFCARSYFGRSYPYTMDYWGQGTSVTVSS VL: EIVLTQSPTTMAASPGEKITITCSASSSISSNYLHWYQQKPGFSPKLLIYRTSNLASGVPARFSGSGSGTSYSLTIGTMEAEDVATYYCQQGSSIPLTFGAGTKLELK | 2290 nM | ≥ 5000 nM | 1150 nM |  |  |  |  |  | 
4 | AB10 (antibody, V domains shown, Labelled with Alexa Fluor 647 NHS ester for FACS) VH: QIQLVQSGPALKKPGETVKISCKASGYTFTDYSMHWIKQAPGKGLKWMGWISTETGEPTYADGFKGRFDFSLETSADTAYLSINNLTNEDTATYFCTRGLWSSFAYWGQGTLVTVSA VL: DVVMTQTPLSLPVSLGDQASISCRASQSLVHSNGNTYLHWFLQKPGQSPKLLIYKVSNRFSGVPDRFSGSGSRTDFTLKISRVEAEDLGVYFCSQITHVPYTFGGGTKLEIK | 2470 nM | 2760 nM | 2140 nM |  |  |  |  |  | 
5 | AB4-chim (antibody, V domains shown, 'chim' is the pre-humanized form (parental variable regions); also called pre-humanized (chimeric) form of AB4) VH: QVQLQQSGAELARPGASVKMSCKASGYTFTSYTMHWIKQRPGQGQEWIGYINPSSTYTHYIKKFKDKATLTADKSSSTAYMQLRSLTSEDSAVYYCSRGELGGFAYWGQGTLVTVSA VL: DVVMTQTPLSLPVSLGDQASISCRSSQSLVHSDGNTYLNWYLQKPGQSPKLLIYKVSNRFSGVPDRFSGSGSGTDFTLKIRRVEAEDLGVYFCSQSTHVPYTFGGGTKLEIK |  |  |  | 176000 | 3640 | 38400 | 64800 | 19100 | 327000
6 | AB12 (antibody, V domains shown, Labelled with Alexa Fluor 647 NHS ester for FACS) VH: EVKLMESGGDLVKPGGSLKLSCAASGFTFSSYAMSWVRQTPEKRLEWVASIRSGGTTYYPDSVKGRFTISRDNARNILYLRMSSLRSEDTAIYYCAKVGGNPYPMDYWGQGTSVTVSS VL: DIQMIQSPSSMFASLGDRVSLSCRASQDIGGNLDWYQQKPGGTIKLLIYSTSNLNSGVPSRFSGSGSGSDYSLTITSLESEDFADYYCLQRNAYPLTFGAGTKLELK | 2290 nM | ≥ 5000 nM | 1300 nM |  |  |  |  |  | 

Second part, the binder after the results:

Row | EC50 [1] | EC50 [2] | EC50 [3] | FACS fluorescence [4] | FACS fluorescence [5] | FACS fluorescence [6] | FACS fluorescence [7] | FACS fluorescence [8] | FACS fluorescence [9] | Binder
7 | 531 nM | 579 nM | 353 nM |  |  |  |  |  |  | AB7 (antibody, V domains shown, Labelled with Alexa Fluor 647 NHS ester for FACS) VH: EVQLQQSGPELVKPGASMKISCKASGYSFTGYTMNWVKQSHGKNLEWIGLINPYNGGTNYNQKFKGKATLTVDKSSSTAYMELLSLTSEDSAVYYCARGVYDYDGFTYWGQGTLVTVSA VL: QIVLTQSPAIMSASLGDRVTMTCTASSSVSSSYLHWYQQKPGSSPKLWIYSTSNLASGVPARFSGSGSGTSYSLTISSMEAEDAATYYCHQYHRSPPTFGSGTKLEIK
8 | 835 nM | 1700 nM | 363 nM |  |  |  |  |  |  | AB11 (antibody, V domains shown, Labelled with Alexa Fluor 647 NHS ester for FACS) VH: DVQLVESGGGLVQPRGSRKLSCAASGFTFSSFGMHWVRQAPEKGLEWVAYISSDSRTIYYADTVKGRFTISRDNPTNTLFLQMTSLRSEDTAMYYCARDYGRTYEAYWGQGTLVTVSA VL: DIVLTQSPASLAVSLGQRATISCRASKSVSTSGYSYIHWYQQKPGQPPKLLIYLASNLESGVPARFSGSGSGTDFTLNIHPVEEEDAATYYCQHSRELPLTFGAGTKLELK
9 | 1160 nM | 2670 nM | 1140 nM |  |  |  |  |  |  | AB9 (antibody, V domains shown, Labelled with Alexa Fluor 647 NHS ester for FACS) VH: EVQLQQSGPELVKPGASVKMSCKASGYRFTDYNMHWVKQSHGKSLEWIGYINPNNGGTNYNQNFKGKATLTVNKSSSTAYMELRSLTSEDSAAYYCARDYLYFFDCWGQGTTLTVSS VL: DIQMTQSPASQSASLGESVTITCLASQTIGTWLAWYQQKPGKSPQLLIYAAASLADGVPSRFSGSGSGTRFSFKISSLQAEDFVSYYCQQLYSIPRTFGGGTKLEIK
10 | 1090 nM | 1920 nM | 1140 nM |  |  |  |  |  |  | AB8 (antibody, V domains shown, Labelled with Alexa Fluor 647 NHS ester for FACS) VH: QVQLQQSGAELARPGASVKMSCKASGYTFTTYTMHWLKQRPGQGLEWIGYINPRSGYSNYNQKFKDKATLTADKSSNTAYMQLNTLTSEDSKVYYCSRGELGGFAYWGQGTLVTVSA VL: DVVMTQTPLSLPVSLGDQASISCRSSQSLVHSDGNTYLYWYLQKPGQSPKLLIYKVSNRFSGVPDRFSGSGSGTDFTLKISRVEAEDLGVYFCSQSTHVPYTFGGGTKLEIK
